The values below come from doi:10.1101/2022.10.05.510932 (bioRxiv, 2022).

The series “crystal structure” deals with the molecule itself. The experiment in a line: crystal structure.
The series “cryo-EM structure” concerns the molecule itself. Briefly: cryo-EM structure.

B1: truncated KpFtsZ (residues 11-316) (domain or fragment, Klebsiella pneumoniae, UniProt W9BCK7 11-316, looked up)
chain: AVIKVIGVGGGGGNAVEHMVRERIEGVEFFAVNTDAQALRKTAVGQTIQIGSGITKGLGAGANPEVGRNAADEDREALRAALDGADMVFIAAGMGGGTGTGAAPVVAEVAKDLGILTVAVVTKPFNFEGKKRMAFAEQGITELSKHVDSLITIPNDKLLKVLGRGISLLDAFGAANDVLKGAVQGIAELITRPGLMNVDFADVRTVMSEMGYAMMGSGVASGEDRAEEAAEMAISSPLLEDIDLSGARGVLVNITAGFDLRLDEFETVGNTIRAFASDNATVVIGTSLDPDMNDELRVTVVATGIG
In the case of B1, the binding result in “crystal structure” is reported as “binds”.

B2: FtsZ from Klebsiella pneumoniae, full length, tag removed (natural protein, UniProt W9BCK7 1-383, looked up)
chain: MFEPMELTNDAVIKVIGVGGGGGNAVEHMVRERIEGVEFFAVNTDAQALRKTAVGQTIQIGSGITKGLGAGANPEVGRNAADEDREALRAALDGADMVFIAAGMGGGTGTGAAPVVAEVAKDLGILTVAVVTKPFNFEGKKRMAFAEQGITELSKHVDSLITIPNDKLLKVLGRGISLLDAFGAANDVLKGAVQGIAELITRPGLMNVDFADVRTVMSEMGYAMMGSGVASGEDRAEEAAEMAISSPLLEDIDLSGARGVLVNITAGFDLRLDEFETVGNTIRAFASDNATVVIGTSLDPDMNDELRVTVVATGIGMDKRPEITLVTNKQVQQPVMDRYQQHGMSPLTQEQKPAAKVVNDNTPQTAKEPDYLDIPAFLRKQAD
For the protein B2, the binding result in “cryo-EM structure” is “binds”.
